Reference: US20230151111A1 (AKESO BIOPHARMA, published 2023)

How the values were obtained:
[1] = target: T1, PD-1 on 293T-PD1 cell surface (human, UniProt Q15116 25-288); experiment: flow cytometry, 293T-PD1 cells; antibody 3.70 nM
T1 construct: whole, on cells
Description: (§1) 500 μL of PBSA was added, and the mixture was centrifuged at 5600 rpm for 5 min to remove the supernatant. […] The system was mixed gently and uniformly, and then was incubated on ice for 1 h. Then 500 μL of PBSA was added, and the mixture was centrifuged at 5600 rpm for 5 min to remove the supernatant. […] 500 μL of PBSA was added, and the mixture was centrifuged at 5600 rpm for 5 min to remove the supernatant. At last, 200 μL of PBSA was added to resuspend cell precipitates, and the mixture was transferred to a flow tube for FACSCalibur detection.

[2] = target: T1, PD-1 on 293T-PD1 cell surface; experiment: flow cytometry, 293T-PD1 cells; antibody 0.05 nM
Description: as §1

[3] = target: T1, PD-1 on 293T-PD1 cell surface; experiment: flow cytometry, 293T-PD1 cells
Description: as §1

[4] = target: T1, PD-1 on 293T-PD1 cell surface; experiment: flow cytometry, 293T-PD1 cells; antibody 1.23 nM
Description: as §1

PD-1-mFc [5] = target: T2, PD-1-mFc (human, UniProt Q15116 25-170, limits assumed); experiment: BLI (Fortebio), antibody on AHC sensor, PD-1-mFc 0.6-50 nM, 37 C
T2 construct: also called human PD-1-mFc
Description: The sample dilution buffer was PBST, 0.1% BSA, pH 7.4. The antibody was immobilized on an AHC sensor at a concentration of 5 μg/mL with an immobilization height of about 0.4 nm. The sensor was equilibrated in a buffer for 60 s, and the binding of the immobilized antibody on the sensor to the antigen PD-1-mFc at concentrations of 0.6-50 nM (three-fold dilution) was determined in 120 s. The protein was dissociated in the buffer for 180 s. The detection temperature was 37° C., the detection frequency was 0.3 Hz, and the sample plate shaking rate was 1000 rpm. The data were analyzed by 1:1 model fitting to obtain affinity constants.

PD-1-mFc [6] = target: T2, PD-1-mFc; experiment: ELISA, PD-1-mFc coated
Description: A microplate was coated with PD-1-mFc at 0.5 μg/mL and incubated at 4° C. overnight. Then the microplate coated with antigens was washed once with PBST, and then blocked with a PBS solution containing 1% BSA as blocking solution at 37° C. for 2 h. After blocking, the microplate was washed 3 times with PBST. The microplate containing the test antibodies was incubated at 37° C. for 30 min, and then washed 3 times with PBST. […] After incubation, the plate was washed 4 times with PBST, TMB (Neogen, 308177) was added in the dark for chromogenesis for 5 min, and then a stop solution was added to terminate chromogenic reaction. The microplate was put into a microplate reader immediately, and the OD value of each well in the microplate was read at 450 nm. The data were analyzed and processed by SoftMax Pro 6.2.1,

[7] = target: T1, PD-1 on 293T-PD1 cell surface; experiment: flow cytometry, 293T-PD1 cells; antibody 0.41 nM
Description: as §1

[8] = target: T1, PD-1 on 293T-PD1 cell surface; experiment: flow cytometry, 293T-PD1 cells; antibody 0.14 nM
Description: as §1

[9] = target: T1, PD-1 on 293T-PD1 cell surface; experiment: flow cytometry, 293T-PD1 cells; antibody 33.33 nM
Description: as §1

[10] = target: T1, PD-1 on 293T-PD1 cell surface; experiment: flow cytometry, 293T-PD1 cells; antibody 100.00 nM
Description: as §1

T1 sequence (Q15116 25-288): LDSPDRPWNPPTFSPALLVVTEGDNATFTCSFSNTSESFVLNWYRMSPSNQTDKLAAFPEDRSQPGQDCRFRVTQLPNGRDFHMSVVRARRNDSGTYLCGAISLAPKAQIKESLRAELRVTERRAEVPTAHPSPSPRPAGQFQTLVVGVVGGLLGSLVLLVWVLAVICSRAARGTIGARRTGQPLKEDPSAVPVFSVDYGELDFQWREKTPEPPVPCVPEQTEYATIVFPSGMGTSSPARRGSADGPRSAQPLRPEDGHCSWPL
T2 sequence (Q15116 other isoform, or with tags, fused parts or gaps limits assumed): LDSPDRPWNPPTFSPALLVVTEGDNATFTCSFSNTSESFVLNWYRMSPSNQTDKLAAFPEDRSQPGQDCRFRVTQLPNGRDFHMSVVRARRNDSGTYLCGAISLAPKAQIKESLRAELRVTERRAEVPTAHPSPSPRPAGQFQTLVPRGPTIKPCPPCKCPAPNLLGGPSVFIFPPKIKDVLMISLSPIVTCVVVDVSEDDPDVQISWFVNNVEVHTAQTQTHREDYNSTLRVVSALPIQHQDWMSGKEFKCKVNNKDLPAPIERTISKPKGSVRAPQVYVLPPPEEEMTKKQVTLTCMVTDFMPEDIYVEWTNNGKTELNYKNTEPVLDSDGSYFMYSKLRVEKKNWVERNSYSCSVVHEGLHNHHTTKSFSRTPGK

FACS signal [1]: 975 | FACS signal [2]: 35.7 | EC50 [3]: 2.11 nM | FACS signal [4]: 438 | Kd (PD-1-mFc [5]): 0.164 nM | EC50 (PD-1-mFc [6]): 0.033 nM | FACS signal [7]: 129 | FACS signal [8]: 57.7 | FACS signal [9]: 1170 | FACS signal [10]: 1500
B1: 14C12H1L1 (antibody, human IgG1, kappa)
heavy: not shown
light: DIQMTQSPSSMSASVGDRVTFTCRASQDINTYLSWFQQKPGKSPKTLIYRANRLVSGVPSRFSGSGSGQDYTLTISSLQPEDMATYYCLQYDEFPLTFGAGTKLELKRTVAAPSVFIFPPSDEQLKSGTASVVCLLNNFYPREAKVQWKVDNALQSGNSQESVTEQDSKDSTYSLSSTLTLSKADYEKHKVYACEVTHQGLSSPVTKSFNRGEC
notes: Humanized anti-PD-1 IgG1/kappa
